Assay results as given in paper PMC3795256.

Target: recombinant human Prx4 (human) (UniProt Q13162)
Test: SPR; ProteOn XPR36; Ero1α (WT) or Prx4 amine-coupled to a GLC chip, PDI or ERp44 as analyte (0.444–36 μM); 25 °C; 20 mM HEPES-NaOH pH 7.4, 150 mM NaCl, 0.001% Tween, 2 mM EDTA; two-state model

recombinant human Prx4 (human), sequence (Q13162 38-271): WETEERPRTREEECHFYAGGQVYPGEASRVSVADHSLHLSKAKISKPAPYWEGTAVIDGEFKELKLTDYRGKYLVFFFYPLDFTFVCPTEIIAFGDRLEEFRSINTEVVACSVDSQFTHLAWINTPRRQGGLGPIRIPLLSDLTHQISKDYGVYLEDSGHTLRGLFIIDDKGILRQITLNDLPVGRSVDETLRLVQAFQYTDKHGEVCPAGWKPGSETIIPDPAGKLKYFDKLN
recombinant human PDI, P07237 18-508 (natural protein; other documents disagree on this pair), sequence (P07237 18-508): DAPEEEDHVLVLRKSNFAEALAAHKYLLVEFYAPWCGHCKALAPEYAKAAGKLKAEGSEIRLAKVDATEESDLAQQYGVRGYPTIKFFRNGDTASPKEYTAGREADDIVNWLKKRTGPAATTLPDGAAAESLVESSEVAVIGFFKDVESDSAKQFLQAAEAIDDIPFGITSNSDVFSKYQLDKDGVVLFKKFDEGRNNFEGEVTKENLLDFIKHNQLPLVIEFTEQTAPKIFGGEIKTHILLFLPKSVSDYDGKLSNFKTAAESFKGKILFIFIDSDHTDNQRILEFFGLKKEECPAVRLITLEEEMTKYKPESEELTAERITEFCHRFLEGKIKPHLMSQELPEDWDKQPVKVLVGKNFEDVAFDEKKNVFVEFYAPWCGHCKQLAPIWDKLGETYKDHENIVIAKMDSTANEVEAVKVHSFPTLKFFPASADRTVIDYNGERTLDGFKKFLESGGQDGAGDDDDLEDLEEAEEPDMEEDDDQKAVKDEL

Kd: 10.6 µM
Substance: recombinant human PDI, P07237 18-508 (natural protein; other documents disagree on this pair)
